Results from paper PMC3766439 (Clinical cancer research : an official journal of the …, 2013).

Biological target: Nus-Tag EGFRvIII ECD deletion mutant CT 292–346 (Homo sapiens, UniProt P00533)
Assay: ELISA

B1: D2C7 monoclonal antibody (antibody, V domains shown)
VH: EVHLQQSGPELEKPGASVKISCKASGYSFTGYNMNWVKQSNGKSLEWIGNIDPYYGDTDYDQKFKGKATLTADKSSNTVYMQLQSLTSEDSAVYYCARGAHRDYYAMDYWGQGTSVTVSS
VL: DIQMTQSPASLSASVGETVTITCRTSENIYIYLAWYQQKQGKSPQLLVYNAKTLAEGVPSRFSGSGSGTQFSLKINGLQPEDFGGYYCQQHYGTPYTFGGGTKLEKK
B1: binds.
